Experimental data as given in patent publication US20160282364A1, “ASSAY FOR INSULIN-DEGRADING ENZYME (IDE) INHIBITORS” (PRESIDENT AND FELLOWS OF HARVARD COLLEGE, priority 2013, published 2016).

Target: IDE (UniProt P14735)
Assay: enzyme inhibition (double inhibitor plot); 1x IC50

IC50: 10 µM
Substance: Bacitracin
